Test results: patent US20190225650A1, “PEPTIDOMIMETIC MACROCYCLES AND USE THEREOF IN REGULATING HIF1ALPHA” (AILERON THERAPEUTICS, INC., priority 2013, published 2019)
Bridge positions count the residues as written; N and C are the ends. Square brackets hold non-standard residues; d marks the D form. S5 = C=CCCC[C@](C)(N)C(=O)O; Nle = CCCC[C@H](N)C(=O)O

B1: SP-198 (peptide)
peptide: Ac-FIAEXVL[Nle]SLVXA[Nle]AL-NH2
modifications: staple 5-12; not fully specified (residues 5, 12); printed as Ac-FIAE-$r8-VL-Nle-SLV-$-A-Nle-AL-NH2
B2: SP-250 (peptide)
peptide: Ac-FIDQAVF[Nle][S5]LVI[S5][Nle]ALL-NH2
modifications: staple 9-13
SMILES: CCCC[C@H](NC(=O)[C@H](Cc1ccccc1)NC(=O)[C@@H](NC(=O)[C@H](C)NC(=O)[C@H](CCC(N)=O)NC(=O)[C@H](CC(=O)O)NC(=O)[C@@H](NC(=O)[C@H](Cc1ccccc1)NC(C)=O)[C@@H](C)CC)C(C)C)C(=O)N[C@@]1(C)CCCC=CCCC[C@@](C)(C(=O)N[C@@H](CCCC)C(=O)N[C@@H](C)C(=O)N[C@@H](CC(C)C)C(=O)N[C@@H](CC(C)C)C(N)=O)NC(=O)[C@H]([C@@H](C)CC)NC(=O)[C@H](C(C)C)NC(=O)[C@H](CC(C)C)NC1=O
B3: SP-325 (peptide)
peptide: Ac-LLQ[S5]EEL[S5]RALDQVNIDE[S5]VL[Nle][S5]LVIE[Nle]G-NH2
modifications: staple 19-23, 4-8
SMILES: CCCC[C@H](NC(=O)[C@H](CCC(=O)O)NC(=O)[C@@H](NC(=O)[C@@H](NC(=O)[C@H](CC(C)C)NC(=O)[C@]1(C)CCCC=CCCC[C@](C)(NC(=O)[C@H](CCC(=O)O)NC(=O)[C@H](CC(=O)O)NC(=O)[C@@H](NC(=O)[C@H](CC(N)=O)NC(=O)[C@@H](NC(=O)[C@H](CCC(N)=O)NC(=O)[C@H](CC(=O)O)NC(=O)[C@H](CC(C)C)NC(=O)[C@H](C)NC(=O)[C@H](CCCNC(=N)N)NC(=O)[C@]2(C)CCCC=CCCC[C@](C)(NC(=O)[C@H](CCC(N)=O)NC(=O)[C@H](CC(C)C)NC(=O)[C@H](CC(C)C)NC(C)=O)C(=O)N[C@@H](CCC(=O)O)C(=O)N[C@@H](CCC(=O)O)C(=O)N[C@@H](CC(C)C)C(=O)N2)C(C)C)[C@@H](C)CC)C(=O)N[C@@H](C(C)C)C(=O)N[C@@H](CC(C)C)C(=O)N[C@@H](CCCC)C(=O)N1)C(C)C)[C@@H](C)CC)C(=O)NCC(N)=O
B4: SP-32 (peptide)
peptide: Ac-FIDEEDL[Nle][S5]LVI[S5][Nle]ALDRI-NH2
modifications: staple 9-13
SMILES: CCCC[C@H](NC(=O)[C@H](CC(C)C)NC(=O)[C@H](CC(=O)O)NC(=O)[C@H](CCC(=O)O)NC(=O)[C@H](CCC(=O)O)NC(=O)[C@H](CC(=O)O)NC(=O)[C@@H](NC(=O)[C@H](Cc1ccccc1)NC(C)=O)[C@@H](C)CC)C(=O)N[C@@]1(C)CCCC=CCCC[C@@](C)(C(=O)N[C@@H](CCCC)C(=O)N[C@@H](C)C(=O)N[C@@H](CC(C)C)C(=O)N[C@@H](CC(=O)O)C(=O)N[C@@H](CCCNC(=N)N)C(=O)N[C@H](C(N)=O)[C@@H](C)CC)NC(=O)[C@H]([C@@H](C)CC)NC(=O)[C@H](C(C)C)NC(=O)[C@H](CC(C)C)NC1=O
B5: SP-37 (peptide)
peptide: Ac-FIDEEVL[Nle][S5]LVE[S5][Nle]ALDRI-NH2
modifications: staple 9-13
SMILES: CCCC[C@H](NC(=O)[C@H](CC(C)C)NC(=O)[C@@H](NC(=O)[C@H](CCC(=O)O)NC(=O)[C@H](CCC(=O)O)NC(=O)[C@H](CC(=O)O)NC(=O)[C@@H](NC(=O)[C@H](Cc1ccccc1)NC(C)=O)[C@@H](C)CC)C(C)C)C(=O)N[C@@]1(C)CCCC=CCCC[C@@](C)(C(=O)N[C@@H](CCCC)C(=O)N[C@@H](C)C(=O)N[C@@H](CC(C)C)C(=O)N[C@@H](CC(=O)O)C(=O)N[C@@H](CCCNC(=N)N)C(=O)N[C@H](C(N)=O)[C@@H](C)CC)NC(=O)[C@H](CCC(=O)O)NC(=O)[C@H](C(C)C)NC(=O)[C@H](CC(C)C)NC1=O
B6: SP-36 (peptide)
peptide: Ac-FIDEEVL[Nle][S5]LEI[S5][Nle]ALDRI-NH2
modifications: staple 9-13
SMILES: CCCC[C@H](NC(=O)[C@H](CC(C)C)NC(=O)[C@@H](NC(=O)[C@H](CCC(=O)O)NC(=O)[C@H](CCC(=O)O)NC(=O)[C@H](CC(=O)O)NC(=O)[C@@H](NC(=O)[C@H](Cc1ccccc1)NC(C)=O)[C@@H](C)CC)C(C)C)C(=O)N[C@@]1(C)CCCC=CCCC[C@@](C)(C(=O)N[C@@H](CCCC)C(=O)N[C@@H](C)C(=O)N[C@@H](CC(C)C)C(=O)N[C@@H](CC(=O)O)C(=O)N[C@@H](CCCNC(=N)N)C(=O)N[C@H](C(N)=O)[C@@H](C)CC)NC(=O)[C@H]([C@@H](C)CC)NC(=O)[C@H](CCC(=O)O)NC(=O)[C@H](CC(C)C)NC1=O
B7: SP-33 (peptide)
peptide: Ac-FIDEEVE[Nle][S5]LVI[S5][Nle]ALDRI-NH2
modifications: staple 9-13
SMILES: CCCC[C@H](NC(=O)[C@H](CCC(=O)O)NC(=O)[C@@H](NC(=O)[C@H](CCC(=O)O)NC(=O)[C@H](CCC(=O)O)NC(=O)[C@H](CC(=O)O)NC(=O)[C@@H](NC(=O)[C@H](Cc1ccccc1)NC(C)=O)[C@@H](C)CC)C(C)C)C(=O)N[C@@]1(C)CCCC=CCCC[C@@](C)(C(=O)N[C@@H](CCCC)C(=O)N[C@@H](C)C(=O)N[C@@H](CC(C)C)C(=O)N[C@@H](CC(=O)O)C(=O)N[C@@H](CCCNC(=N)N)C(=O)N[C@H](C(N)=O)[C@@H](C)CC)NC(=O)[C@H]([C@@H](C)CC)NC(=O)[C@H](C(C)C)NC(=O)[C@H](CC(C)C)NC1=O
B8: SP-34 (peptide)
peptide: Ac-FIDEEVLD[S5]LVI[S5][Nle]ALDRI-NH2
modifications: staple 9-13
SMILES: CCCC[C@H](NC(=O)[C@]1(C)CCCC=CCCC[C@](C)(NC(=O)[C@H](CC(=O)O)NC(=O)[C@H](CC(C)C)NC(=O)[C@@H](NC(=O)[C@H](CCC(=O)O)NC(=O)[C@H](CCC(=O)O)NC(=O)[C@H](CC(=O)O)NC(=O)[C@@H](NC(=O)[C@H](Cc2ccccc2)NC(C)=O)[C@@H](C)CC)C(C)C)C(=O)N[C@@H](CC(C)C)C(=O)N[C@@H](C(C)C)C(=O)N[C@@H]([C@@H](C)CC)C(=O)N1)C(=O)N[C@@H](C)C(=O)N[C@@H](CC(C)C)C(=O)N[C@@H](CC(=O)O)C(=O)N[C@@H](CCCNC(=N)N)C(=O)N[C@H](C(N)=O)[C@@H](C)CC
B9: SP-35 (peptide)
peptide: Ac-FIDEEVL[Nle][S5]DVI[S5][Nle]ALDRI-NH2
modifications: staple 9-13
SMILES: CCCC[C@H](NC(=O)[C@H](CC(C)C)NC(=O)[C@@H](NC(=O)[C@H](CCC(=O)O)NC(=O)[C@H](CCC(=O)O)NC(=O)[C@H](CC(=O)O)NC(=O)[C@@H](NC(=O)[C@H](Cc1ccccc1)NC(C)=O)[C@@H](C)CC)C(C)C)C(=O)N[C@@]1(C)CCCC=CCCC[C@@](C)(C(=O)N[C@@H](CCCC)C(=O)N[C@@H](C)C(=O)N[C@@H](CC(C)C)C(=O)N[C@@H](CC(=O)O)C(=O)N[C@@H](CCCNC(=N)N)C(=O)N[C@H](C(N)=O)[C@@H](C)CC)NC(=O)[C@H]([C@@H](C)CC)NC(=O)[C@H](C(C)C)NC(=O)[C@H](CC(=O)O)NC1=O
B10: SP-38 (peptide)
peptide: Ac-FIDEEVL[Nle][S5]LVI[S5]EALDRI-NH2
modifications: staple 9-13
SMILES: CCCC[C@H](NC(=O)[C@H](CC(C)C)NC(=O)[C@@H](NC(=O)[C@H](CCC(=O)O)NC(=O)[C@H](CCC(=O)O)NC(=O)[C@H](CC(=O)O)NC(=O)[C@@H](NC(=O)[C@H](Cc1ccccc1)NC(C)=O)[C@@H](C)CC)C(C)C)C(=O)N[C@@]1(C)CCCC=CCCC[C@@](C)(C(=O)N[C@@H](CCC(=O)O)C(=O)N[C@@H](C)C(=O)N[C@@H](CC(C)C)C(=O)N[C@@H](CC(=O)O)C(=O)N[C@@H](CCCNC(=N)N)C(=O)N[C@H](C(N)=O)[C@@H](C)CC)NC(=O)[C@H]([C@@H](C)CC)NC(=O)[C@H](C(C)C)NC(=O)[C@H](CC(C)C)NC1=O
B11: SP-39 (peptide)
peptide: Ac-FIDEEVL[Nle][S5]LVI[S5][Nle]ELDRI-NH2
modifications: staple 9-13
SMILES: CCCC[C@H](NC(=O)[C@H](CC(C)C)NC(=O)[C@@H](NC(=O)[C@H](CCC(=O)O)NC(=O)[C@H](CCC(=O)O)NC(=O)[C@H](CC(=O)O)NC(=O)[C@@H](NC(=O)[C@H](Cc1ccccc1)NC(C)=O)[C@@H](C)CC)C(C)C)C(=O)N[C@@]1(C)CCCC=CCCC[C@@](C)(C(=O)N[C@@H](CCCC)C(=O)N[C@@H](CCC(=O)O)C(=O)N[C@@H](CC(C)C)C(=O)N[C@@H](CC(=O)O)C(=O)N[C@@H](CCCNC(=N)N)C(=O)N[C@H](C(N)=O)[C@@H](C)CC)NC(=O)[C@H]([C@@H](C)CC)NC(=O)[C@H](C(C)C)NC(=O)[C@H](CC(C)C)NC1=O

Biological target: T1, His6-tagged p300 (AA 323-423) (UniProt Q09472 323-423)
T1 construct: range 323-423; also called p300-CH; not shown: His6 tag
Assay: TR-FRET HIF1a/p300 displacement; grade = IC50 >700 nM
Procedure: The ability of peptides to displace HIF1α c-terminal trans-activation domain from p300-CH was measured by a TR FRET assay. […] The complex was diluted to 300 nM final in complete assay media and competitor peptides were added. The complete assay media contained 150 mM NaCl (Sigma +S5150 or equivalent), 20 mM HEPES pH 7.4 (Boston Bioproducts, Ashland, Mass.; #BB-2076), 7.5 mM CHAPS (Thermo #28300 or equivalent), and 1 mM DTT. Protein and peptide were incubated at room temperature for 1 hour before the addition of anti-Flag-K and anti-6×HIS-D2 (CisBio, Bedford Mass.) HTRF reconstitution buffer (50 mM Phosphate pH 7, 0.8 Potassium Flouride, BSA 0.2%)¹ to a final concentration of 0.5 μM and 4 nM respectively. The reaction continued for an additional two hours at room temperature. The reaction was read on a TECAN F500 plate reader with settings recommended by CisBio. The ratio of donor to acceptor fluorescence was calculated. The resulting data was analyzed with Graphpad Prism 5.0. IC50 values were calculated for both proteins using the One Site Fit-LogIC50 equation and presented in the column “IC₅₀ (nM) (HIF1α_p300 Displacement+CHAPS)” of Table 6. ¹ Cisbio USA, Bedford, Mass.; 61HISDLB (lot 007A), 61FG2KLB (024A), HTRF Buffer (62RB3RDF)

T1 sequence (Q09472 323-423 limits assumed): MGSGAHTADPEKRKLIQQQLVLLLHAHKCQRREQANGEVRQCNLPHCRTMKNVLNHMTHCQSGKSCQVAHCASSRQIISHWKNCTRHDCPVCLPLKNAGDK

| Binder | IC50 |
| --- | --- |
| B1 | > 0.7 µM |
| B2 | > 0.7 µM |
| B3 | > 0.7 µM |
| B4 | > 0.7 µM |
| B5 | > 0.7 µM |
| B6 | > 0.7 µM |
| B7 | > 0.7 µM |
| B8 | > 0.7 µM |
| B9 | > 0.7 µM |
| B10 | > 0.7 µM |
| B11 | > 0.7 µM |
